± gives the standard deviation of the averaged measurements.
B1: library; a variant is named by its letters at N, in order (parent)
chain: GCUGUCACCGAGAAACUGUGAAGUAUAUCUUAAACCUGGGCACUUAAAAGAUAUAUGGAGUUAGUAGUGCAACCUGCUCGGUCUGAUGAGUCCNNNNNNGGACGAAACAGC

Legend:
cyclic di-GMP [1] = variants of: B1; experiment: normalized RNA/DNA level without ligand (relative to sTRSVctl = 100) (log10 (% of sTRSVctl)); HEK293T; ligand: cyclic di-GMP (c-di-GMP-II aptamer); higher = less ribozyme self-cleavage, higher mRNA level; conditions: reporter: mCherry (pCS4076), ligand present: no
In short: (§1)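 Only sequences with at least 100 DNA reads were analyzed, from HEK293T cells transfected with 4 µg per 6-well well of ribozyme switch library plasmids 72 h before RNA extraction with EDTA. Any ligand was added 1 h before transfection. RNA level was defined as RNA over DNA reads, normalized to a spiked-in non-cleaving sequence or to the top sequences, then scaled and log-transformed. The top set was 25 sequences, and the scaling was ×100 followed by log10.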

cyclic di-GMP [2] = variants of: B1; experiment: normalized RNA/DNA level with ligand (relative to sTRSVctl = 100) (log10 (% of sTRSVctl)); HEK293T; ligand: cyclic di-GMP (c-di-GMP-II aptamer); ligand concentration (+) RNA-Seq: 1 mM; higher = less ribozyme self-cleavage, higher mRNA level; conditions: reporter: mCherry (pCS4076), ligand present: yes
In short: as §1

Variant	normalized RNA/DNA level without ligand (log10) (cyclic di-GMP [1])	normalized RNA/DNA level with ligand (log10) (cyclic di-GMP [2])
GCUGUCACCGAGAAACUGUGAAGUAUAUCUUAAACCUGGGCACUUAAAAGAUAUAUGGAGUUAGUAGUGCAACCUGCUCGGUCUGAUGAGUCCUUGCACGGACGAAACAGC [UUGCAC]	1.75 ± 0.024	1.85 ± 0.11
GCUGUCACCGAGAAACUGUGAAGUAUAUCUUAAACCUGGGCACUUAAAAGAUAUAUGGAGUUAGUAGUGCAACCUGCUCGGUCUGAUGAGUCCUUGCAGGGACGAAACAGC [UUGCAG]	1.8468 ± 0.00037	1.9 ± 0.042
GCUGUCACCGAGAAACUGUGAAGUAUAUCUUAAACCUGGGCACUUAAAAGAUAUAUGGAGUUAGUAGUGCAACCUGCUCGGUCUGAUGAGUCCUUGCAAGGACGAAACAGC [UUGCAA]	1.69 ± 0.075	1.81 ± 0.037
GCUGUCACCGAGAAACUGUGAAGUAUAUCUUAAACCUGGGCACUUAAAAGAUAUAUGGAGUUAGUAGUGCAACCUGCUCGGUCUGAUGAGUCCUUGCAUGGACGAAACAGC [UUGCAU]	1.669 ± 0.0095	1.81 ± 0.081
GCUGUCACCGAGAAACUGUGAAGUAUAUCUUAAACCUGGGCACUUAAAAGAUAUAUGGAGUUAGUAGUGCAACCUGCUCGGUCUGAUGAGUCCAUGCACGGACGAAACAGC [AUGCAC]	1.714 ± 0.0048	1.86 ± 0.081
GCUGUCACCGAGAAACUGUGAAGUAUAUCUUAAACCUGGGCACUUAAAAGAUAUAUGGAGUUAGUAGUGCAACCUGCUCGGUCUGAUGAGUCCAUGCAGGGACGAAACAGC [AUGCAG]	1.7646 ± 0.00074	1.89 ± 0.055
GCUGUCACCGAGAAACUGUGAAGUAUAUCUUAAACCUGGGCACUUAAAAGAUAUAUGGAGUUAGUAGUGCAACCUGCUCGGUCUGAUGAGUCCAUGCAUGGACGAAACAGC [AUGCAU]	1.62 ± 0.045	1.76 ± 0.12
GCUGUCACCGAGAAACUGUGAAGUAUAUCUUAAACCUGGGCACUUAAAAGAUAUAUGGAGUUAGUAGUGCAACCUGCUCGGUCUGAUGAGUCCAUGCAAGGACGAAACAGC [AUGCAA]	1.52 ± 0.029	1.66 ± 0.12
GCUGUCACCGAGAAACUGUGAAGUAUAUCUUAAACCUGGGCACUUAAAAGAUAUAUGGAGUUAGUAGUGCAACCUGCUCGGUCUGAUGAGUCCCUGCAUGGACGAAACAGC [CUGCAU]	1.6242 ± 0.0013	1.77 ± 0.16
GCUGUCACCGAGAAACUGUGAAGUAUAUCUUAAACCUGGGCACUUAAAAGAUAUAUGGAGUUAGUAGUGCAACCUGCUCGGUCUGAUGAGUCCCUGCACGGACGAAACAGC [CUGCAC]	1.742 ± 0.0034	1.88 ± 0.1
GCUGUCACCGAGAAACUGUGAAGUAUAUCUUAAACCUGGGCACUUAAAAGAUAUAUGGAGUUAGUAGUGCAACCUGCUCGGUCUGAUGAGUCCCUGCAGGGACGAAACAGC [CUGCAG]	1.73 ± 0.075	1.88 ± 0.11
GCUGUCACCGAGAAACUGUGAAGUAUAUCUUAAACCUGGGCACUUAAAAGAUAUAUGGAGUUAGUAGUGCAACCUGCUCGGUCUGAUGAGUCCUUGCCAGGACGAAACAGC [UUGCCA]	1.8 ± 0.08	1.82 ± 0.13
GCUGUCACCGAGAAACUGUGAAGUAUAUCUUAAACCUGGGCACUUAAAAGAUAUAUGGAGUUAGUAGUGCAACCUGCUCGGUCUGAUGAGUCCGUGCAAGGACGAAACAGC [GUGCAA]	1.64 ± 0.046	1.77 ± 0.084
GCUGUCACCGAGAAACUGUGAAGUAUAUCUUAAACCUGGGCACUUAAAAGAUAUAUGGAGUUAGUAGUGCAACCUGCUCGGUCUGAUGAGUCCGUGCACGGACGAAACAGC [GUGCAC]	1.729 ± 0.0059	1.83 ± 0.17
GCUGUCACCGAGAAACUGUGAAGUAUAUCUUAAACCUGGGCACUUAAAAGAUAUAUGGAGUUAGUAGUGCAACCUGCUCGGUCUGAUGAGUCCGUGCAGGGACGAAACAGC [GUGCAG]	1.86 ± 0.06	1.89 ± 0.13
GCUGUCACCGAGAAACUGUGAAGUAUAUCUUAAACCUGGGCACUUAAAAGAUAUAUGGAGUUAGUAGUGCAACCUGCUCGGUCUGAUGAGUCCGUGAUAGGACGAAACAGC [GUGAUA]	1.5 ± 0.034	1.7 ± 0.097
GCUGUCACCGAGAAACUGUGAAGUAUAUCUUAAACCUGGGCACUUAAAAGAUAUAUGGAGUUAGUAGUGCAACCUGCUCGGUCUGAUGAGUCCAUGCCCGGACGAAACAGC [AUGCCC]	1.79 ± 0.051	1.82 ± 0.14
GCUGUCACCGAGAAACUGUGAAGUAUAUCUUAAACCUGGGCACUUAAAAGAUAUAUGGAGUUAGUAGUGCAACCUGCUCGGUCUGAUGAGUCCCUGCCAGGACGAAACAGC [CUGCCA]	1.613 ± 0.0037	1.76 ± 0.18
GCUGUCACCGAGAAACUGUGAAGUAUAUCUUAAACCUGGGCACUUAAAAGAUAUAUGGAGUUAGUAGUGCAACCUGCUCGGUCUGAUGAGUCCGUGCCAGGACGAAACAGC [GUGCCA]	1.785 ± 0.015	1.9 ± 0.12
GCUGUCACCGAGAAACUGUGAAGUAUAUCUUAAACCUGGGCACUUAAAAGAUAUAUGGAGUUAGUAGUGCAACCUGCUCGGUCUGAUGAGUCCGUGCCCGGACGAAACAGC [GUGCCC]	1.782 ± 0.016	1.84 ± 0.099
GCUGUCACCGAGAAACUGUGAAGUAUAUCUUAAACCUGGGCACUUAAAAGAUAUAUGGAGUUAGUAGUGCAACCUGCUCGGUCUGAUGAGUCCCUGAUCGGACGAAACAGC [CUGAUC]	1.6663 ± 0.001	1.76 ± 0.13
GCUGUCACCGAGAAACUGUGAAGUAUAUCUUAAACCUGGGCACUUAAAAGAUAUAUGGAGUUAGUAGUGCAACCUGCUCGGUCUGAUGAGUCCAUGAUAGGACGAAACAGC [AUGAUA]	1.53 ± 0.069	1.71 ± 0.14
GCUGUCACCGAGAAACUGUGAAGUAUAUCUUAAACCUGGGCACUUAAAAGAUAUAUGGAGUUAGUAGUGCAACCUGCUCGGUCUGAUGAGUCCAUGAUCGGACGAAACAGC [AUGAUC]	1.65 ± 0.049	1.82 ± 0.087
GCUGUCACCGAGAAACUGUGAAGUAUAUCUUAAACCUGGGCACUUAAAAGAUAUAUGGAGUUAGUAGUGCAACCUGCUCGGUCUGAUGAGUCCUUGAUAGGACGAAACAGC [UUGAUA]	1.49 ± 0.02	1.69 ± 0.17
GCUGUCACCGAGAAACUGUGAAGUAUAUCUUAAACCUGGGCACUUAAAAGAUAUAUGGAGUUAGUAGUGCAACCUGCUCGGUCUGAUGAGUCCUUGAUUGGACGAAACAGC [UUGAUU]	1.698 ± 0.016	1.81 ± 0.083
GCUGUCACCGAGAAACUGUGAAGUAUAUCUUAAACCUGGGCACUUAAAAGAUAUAUGGAGUUAGUAGUGCAACCUGCUCGGUCUGAUGAGUCCUUGAUCGGACGAAACAGC [UUGAUC]	1.73 ± 0.038	1.85 ± 0.11

Source: the supplement of paper PMC6757056
